In experiment [1] the target is T1, human adenosine A2A receptor (A2aR) (human, UniProt P29274 1-412).
T1 construct: Assays used HEK293 cells stably overexpressing human A2aR (BPS Bioscience 79381), human A2aR-expressing CHO cells, or endogenous A2aR on human PBMC; also called human A2aR; hA2aR
The experiment is described as follows: flow cytometry titration, HEK293-hA2aR cells, purified antibody. In general terms: Flow cytometry measures light scatter and fluorescence of single cells or particles in a stream.

For experiment [2], the target named is T1, human adenosine A2A receptor (A2aR). The experiment is described as follows: flow cytometry, HEK293-hA2aR cells, supernatant 1 ug/ml.
The target is the same in experiment [3]. The experiment is described as follows: cell-based or functional assay.
Experiment [4] shares this target. The experiment is described as follows: flow cytometry, HEK293-hA2aR cells, supernatant 1 ug/ml.

Numbering of substitutions follows the chain as printed. Names may count otherwise. Where two headings read alike, the source gives them in different places.

For orientation: EC50 means the concentration at which the effect is half-maximal. A higher EC50 goes with weaker potency.

T1 sequence (P29274 whole entry): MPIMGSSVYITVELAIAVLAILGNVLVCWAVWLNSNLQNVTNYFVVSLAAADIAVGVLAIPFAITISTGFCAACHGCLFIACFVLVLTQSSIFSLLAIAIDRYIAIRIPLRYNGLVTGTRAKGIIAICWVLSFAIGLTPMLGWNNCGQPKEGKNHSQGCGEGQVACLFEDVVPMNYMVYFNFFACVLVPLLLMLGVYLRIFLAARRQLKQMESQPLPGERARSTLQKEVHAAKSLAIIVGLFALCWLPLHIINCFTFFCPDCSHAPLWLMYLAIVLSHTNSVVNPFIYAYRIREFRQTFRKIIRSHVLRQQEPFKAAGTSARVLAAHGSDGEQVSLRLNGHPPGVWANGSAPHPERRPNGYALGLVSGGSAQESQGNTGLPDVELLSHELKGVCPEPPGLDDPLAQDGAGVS

B1: Hu3F8-H3/Hu3F8-L5 (antibody, human IgG1, V domains shown)
VH: EVQLVQSGAEVKKPGASVKVSCKASGFTFTRYWMNWVRQAPGQGLEWIGRIDPSDSETHYNHKFWGRATLTVDTSTSTVYMELSSLRSEDTAVYYCLRSLYGKGDYWGQGTTVTVSS
VL: DVVMTQSPLSLPVTPGEPASISCRSSQSIVHSNGNTYLEWYLQKPGQSPQLLIYKVSNRFSGVPDRFSGSGSGTDFTLKISRVEAEDVGVYYCYQGSHVPLTFGGGTKVEIK
notes: Human IgG1 FES (L234F, L235E, P331S) and human Ig kappa constant domains; also called Hu3F8 VH3/VL5
Regarding B1, in experiment [1], the concentration giving a half-maximal response (EC50) turned out to be 0.83 nM. Moreover, the MFI in experiment [2] was determined as 1850 MFI. Moreover, the “IC50 of blocking activity, cAMP-Glo, 300 nM NECA, HEK293-hA2aR cells, supernatant” value (“IC50 of blocking activity, cAMP-Glo” below) in experiment [3] is 1.5 nM.

B2: Hu3F6-H2/Hu3F6-L2 (antibody, human IgG1, V domains shown)
VH: B1 VH with A24T, T28A, R31S, I48M, T58A, N61H, A68V, L70M, Q109H
VL: B1 VL with P15L, E17Q, I29L, S32R, L42Q, K44R, Q50R, L51R
Regarding B2, the MFI in experiment [4] was determined as 146 MFI.

B3: Hu1B5-H2/Hu1B5-L1 (antibody, human IgG1, V domains shown)
VH: B1 VH with A24T, Y32F, I48M, S54Y, H59Q, G66D, A68V, L70M, L97G
VL: B1 VL with P15L, E17Q, Y41F, L42Q, K44R, Q50R, L51R, Y94F
As for B3, the MFI in experiment [4] stood at 165 MFI.

B4: Hu3F6-H3/Hu3F6-L2 (antibody, human IgG1, V domains shown)
VH: B1 VH with A24T, T28A, R31S, T58A, N61H, T76S, Q109H
VL: B1 VL with P15L, E17Q, I29L, S32R, L42Q, K44R, Q50R, L51R
B4 displayed an MFI in experiment [4] of 200 MFI.

B5: Hu1B5-H6/Hu1B5-L1 (antibody, human IgG1, V domains shown)
VH: EVQLVQSGAEVKKPGESLRISCKTSGFTFTRFWMNWVRQMPGKGLEWIGRIDPYDSETQYNHKFWDHATLSVDKSSSTVYLQWSSLKASDTAMYYCGRSLYGKGDYWGQGTTVTVSS
VL: B1 VL with P15L, E17Q, Y41F, L42Q, K44R, Q50R, L51R, Y94F
For B5, in experiment [4], the MFI is 178 MFI.

B6: Hu3F8-H3/Hu3F8-L1 (antibody, human IgG1, V domains shown)
VH: B1 VH
VL: B1 VL with P15L, E17Q, Y41F, L42Q, K44R, Q50R, L51R
In experiment [4], B6 yielded an MFI of 64 MFI.

B7: Hu3F6-H5/Hu3F6-L2 (antibody, human IgG1, V domains shown)
VH: B1 VH with A24T, T28A, R31S, T58A, N61A, T74K, T76S, Q109H
VL: B1 VL with P15L, E17Q, I29L, S32R, L42Q, K44R, Q50R, L51R
In the case of B7, the MFI in experiment [4] is 191 MFI.

B8: Hu3F8-H3/Hu3F8-L2 (antibody, human IgG1, V domains shown)
VH: B1 VH
VL: B1 VL with P15L, E17Q, L42Q, K44R, Q50R, L51R
In turn, B8 yielded an MFI in experiment [4] of 93 MFI.

B9: Hu3F8-H5/Hu3F8-L5 (antibody, human IgG1, V domains shown)
VH: B1 VH with H62A, T74K
VL: B1 VL
notes: Human IgG1 FES (L234F, L235E, P331S) and human Ig kappa constant domains
Molecule B9 returned an MFI in experiment [2] of 1900 MFI. In experiment [3], the “IC50 of blocking activity, cAMP-Glo” value stood at 1.6 nM.

B10: Hu3F8-H1/Hu3F8-L5 (antibody, human IgG1, V domains shown)
VH: B1 VH with E1Q, I48M, A68V, L70M, V72R
VL: B1 VL
notes: Human IgG1 FES (L234F, L235E, P331S) and human Ig kappa constant domains; also called Hu3F8 VH1/VL5
Regarding B10, the midpoint of the response in experiment [1], the EC50, lay at 0.85 nM. In experiment [2], this molecule came in with an MFI of 1790 MFI. Moreover, the “IC50 of blocking activity, cAMP-Glo” value in experiment [3] was determined as 1.4 nM.

B11: Hu3F8-H2/Hu3F8-L3 (antibody, human IgG1, V domains shown)
VH: B1 VH with I48M, A68V, L70M
VL: B1 VL with P15L, E17Q, L42Q, K44R, Q50R
notes: Human IgG1 FES (L234F, L235E, P331S) and human Ig kappa constant domains; also called Hu3F8 VH2/VL3
In turn, B11 showed an EC50 in experiment [1] of 0.66 nM. This molecule showed an MFI in experiment [2] of 1800 MFI. Besides, the “IC50 of blocking activity, cAMP-Glo” value in experiment [3] amounted to 1.1 nM.

B12: Hu3F8-H4/Hu3F8-L4 (antibody, human IgG1, V domains shown)
VH: B1 VH with T74K
VL: B1 VL with V2I
notes: Human IgG1 FES (L234F, L235E, P331S) and human Ig kappa constant domains; also called Hu3F8 VH4/VL4
B12: the EC50 in experiment [1] was 0.79 nM. Besides, in experiment [2], the MFI was found to be 1880 MFI. In addition, the “IC50 of blocking activity, cAMP-Glo” value in experiment [3] came out at 1 nM.

B13: Hu3F8-H2/Hu3F8-L5 (antibody, human IgG1, V domains shown)
VH: B1 VH with I48M, A68V, L70M
VL: B1 VL
notes: Human IgG1 FES (L234F, L235E, P331S) and human Ig kappa constant domains; also called Hu3F8 VH2/VL5
For B13, a half-maximal effect in experiment [1] (EC50) was put at 0.9 nM. In addition, in experiment [2], the MFI was 1770 MFI. The “IC50 of blocking activity, cAMP-Glo” value in experiment [3] is 1.8 nM.

B14: Hu3F8-H6/Hu3F8-L3 (antibody, human IgG1, V domains shown)
VH: B5 VH with T24A, F32Y, Y54S, Q59H, D66G, G97L
VL: B1 VL with P15L, E17Q, L42Q, K44R, Q50R
notes: Human IgG1 FES (L234F, L235E, P331S) and human Ig kappa constant domains; also called Hu3F8 VH6/VL3
In turn, B14 showed an EC50 in experiment [1] of 0.59 nM. For the same molecule, in experiment [2], the MFI stood at 1880 MFI. Besides, in experiment [3], the “IC50 of blocking activity, cAMP-Glo” value was 1.2 nM.

B15: Hu3F8-H5/Hu3F8-L3 (antibody, human IgG1, V domains shown)
VH: B1 VH with H62A, T74K
VL: B1 VL with P15L, E17Q, L42Q, K44R, Q50R
notes: as for B9
In experiment [2], B15 came in with an MFI of 1840 MFI. The “IC50 of blocking activity, cAMP-Glo” value in experiment [3] was 1.5 nM.

B16: Hu3F8-H4/Hu3F8-L3 (antibody, human IgG1, V domains shown)
VH: B1 VH with T74K
VL: B1 VL with P15L, E17Q, L42Q, K44R, Q50R
notes: Human IgG1 FES (L234F, L235E, P331S) and human Ig kappa constant domains; also called Hu3F8 VH4/VL3
B16 returned an EC50 in experiment [1] of 0.6 nM. Further, in experiment [2], the MFI was found to be 1910 MFI. The “IC50 of blocking activity, cAMP-Glo” value in experiment [3] is 0.7 nM.

B17: Hu3F8-H5/Hu3F8-L4 (antibody, human IgG1, V domains shown)
VH: B1 VH with H62A, T74K
VL: B1 VL with V2I
notes: as for B9
Turning to B17, the MFI in experiment [2] came to 1840 MFI. The “IC50 of blocking activity, cAMP-Glo” value in experiment [3] worked out at 2.2 nM.

B18: Hu3F8-H4/Hu3F8-L5 (antibody, human IgG1, V domains shown)
VH: B1 VH with T74K
VL: B1 VL
notes: Human IgG1 FES (L234F, L235E, P331S) and human Ig kappa constant domains; also called Hu3F8 VH4/VL5
B18 registered an EC50 in experiment [1] of 0.75 nM. Further, the MFI in experiment [2] was 1890 MFI. The “IC50 of blocking activity, cAMP-Glo” value in experiment [3] was 1.5 nM.

B19: Hu3F8-H3/Hu3F8-L4 (antibody, human IgG1, V domains shown)
VH: B1 VH
VL: B1 VL with V2I
notes: as for B9
For B19, the MFI in experiment [2] turned out to be 1840 MFI. Moreover, in experiment [3], the “IC50 of blocking activity, cAMP-Glo” value was 1.7 nM.

B20: Hu3F8-H6/Hu3F8-L4 (antibody, human IgG1, V domains shown)
VH: B5 VH with T24A, F32Y, Y54S, Q59H, D66G, G97L
VL: B1 VL with V2I
notes: as for B9
Consider B20, for which the MFI in experiment [2] was determined as 1880 MFI. Also, the “IC50 of blocking activity, cAMP-Glo” value in experiment [3] came to 2.3 nM.

B21: Hu3F8-H3/Hu3F8-L3 (antibody, human IgG1, V domains shown)
VH: B1 VH
VL: B1 VL with P15L, E17Q, L42Q, K44R, Q50R
notes: Human IgG1 FES (L234F, L235E, P331S) and human Ig kappa constant domains; also called Hu3F8 VH3/VL3
B21 had an EC50 in experiment [1] of 0.69 nM. Further, the MFI in experiment [2] is 1860 MFI. The “IC50 of blocking activity, cAMP-Glo” value in experiment [3] amounted to 1.1 nM.

B22: Hu3F8-H1/Hu3F8-L3 (antibody, human IgG1, V domains shown)
VH: B1 VH with E1Q, I48M, A68V, L70M, V72R
VL: B1 VL with P15L, E17Q, L42Q, K44R, Q50R
notes: as for B9
In experiment [2], B22 displayed an MFI of 1810 MFI. Also, in experiment [3], the “IC50 of blocking activity, cAMP-Glo” value was 1.5 nM.

Values taken from patent publication US20250206828A1, “ANTI-ADENOSINE RECEPTOR (A2aR) ANTIBODIES AND THE USE THEREOF” (Adept Therapeutics Inc., priority 2022, published 2025).
